PMC6768852

What was measured:
Assay in all cases: EMSA
Settings in all cases: EMSA: 100 pM RNA, 10 mM Tris, 100 mM NaCl, 0.1 mM EDTA, 0.01 mg/mL tRNA, 50 ug/mL heparin, 0.01% IGEPAL CA630, room temperature, 3 h; pH not stated
IMP2 KH3 VL MUT (KH34) = IMP2 KH3 VL MUT (KH34) (UniProt Q9Y6M1)
IMP2 KH34 double VL MUT = IMP2 KH34 double VL MUT (UniProt Q9Y6M1)
IMP2 KH4 VL MUT (KH34) = IMP2 KH4 VL MUT (KH34) (UniProt Q9Y6M1)
IMP2 KH4 VL MUT (KH34), sequence (Q9Y6M1 whole entry): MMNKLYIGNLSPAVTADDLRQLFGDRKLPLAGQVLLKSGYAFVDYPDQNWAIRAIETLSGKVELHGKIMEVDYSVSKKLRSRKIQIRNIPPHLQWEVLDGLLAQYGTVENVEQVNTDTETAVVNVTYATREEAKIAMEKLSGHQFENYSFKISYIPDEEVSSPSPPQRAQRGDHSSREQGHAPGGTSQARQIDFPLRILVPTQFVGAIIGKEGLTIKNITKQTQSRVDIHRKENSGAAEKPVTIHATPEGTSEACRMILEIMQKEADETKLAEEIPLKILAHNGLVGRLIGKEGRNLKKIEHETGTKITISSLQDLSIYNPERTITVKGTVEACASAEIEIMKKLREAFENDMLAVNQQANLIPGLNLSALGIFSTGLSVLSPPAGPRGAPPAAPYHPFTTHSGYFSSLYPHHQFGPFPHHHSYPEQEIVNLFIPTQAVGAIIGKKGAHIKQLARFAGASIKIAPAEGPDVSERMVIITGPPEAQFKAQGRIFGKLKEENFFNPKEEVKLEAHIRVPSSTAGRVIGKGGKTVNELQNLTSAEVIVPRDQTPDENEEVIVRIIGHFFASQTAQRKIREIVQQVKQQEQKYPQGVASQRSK

IMP2 KH34 double VL MUT, sequence (Q9Y6M1 whole entry): as above
IMP2 KH3 VL MUT (KH34), sequence (Q9Y6M1 425-581): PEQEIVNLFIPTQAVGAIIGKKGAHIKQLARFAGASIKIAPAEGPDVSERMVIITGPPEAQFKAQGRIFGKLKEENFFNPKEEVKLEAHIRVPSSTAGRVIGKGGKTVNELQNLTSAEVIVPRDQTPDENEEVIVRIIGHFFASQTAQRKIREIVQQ

## ACCGGACUGUUACCAACACCCACACCCC [C28 beta-actin zipcode WT]
IMP2 KH3 VL MUT (KH34)
  Kd: 0.0073 µM
IMP2 KH34 double VL MUT
  Kd: 0.0265 µM
IMP2 KH4 VL MUT (KH34)
  Kd: 0.346 µM
